Measurements: patent US20110152345A1, “EBI3, DLX5, NPTX1 AND CDKN3 FOR TARGET GENES OF LUNG CANCER THERAPY AND DIAGNOSIS” (Oncotherapy Science, Inc., priority 2007, published 2011)

What was measured:
[1] = molecular target: T1, CDKN3 and EF-1delta (Homo sapiens, UniProt Q16667); experiment: Immunoprecipitation of endogenous CDKN3 and EF-1delta complex in peptide-treated LC319 cells; format: cell-based; conditions: peptide added to culture medium
T1 construct: between endogenous CDKN3 and EF-1delta proteins in LC319 cells; endogenous in cells; host or cells: LC319 (human lung adenocarcinoma cell line)
T1 sequence (Q16667 1-212): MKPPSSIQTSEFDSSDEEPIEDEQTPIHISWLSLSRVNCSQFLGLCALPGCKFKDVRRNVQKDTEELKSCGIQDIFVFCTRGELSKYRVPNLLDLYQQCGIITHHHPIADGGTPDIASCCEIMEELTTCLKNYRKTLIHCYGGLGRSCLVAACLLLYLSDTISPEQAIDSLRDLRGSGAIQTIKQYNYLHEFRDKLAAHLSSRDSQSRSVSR
From the text: FIG. 24: Identifies the CDKN3-binding region in EF-1delta. Part A presents a schematic drawing of five cell permeable peptides linked covalently at its NH2-terminus to a membrane transducing 11 poly-arginine sequence. The sequence of leucine zipper motif in EF-1delta and five cell permeable peptides derived from EF-1delta are shown. Part B presents the viability of LC319 cells evaluated by MTT assay in response to five cell permeable peptides (upper panel). Reduction of the complex formation detected by immunoprecipitation between endogenous CDKN3 and EF-1delta proteins in LC319 cells that were treated with the 11R-EF-1delta90-108 peptides (lower panel).
Then, to investigate the functional significance of interaction between CDKN3 and EF-1delta for growth or survival of lung-cancer cells, bioactive cell-permeable peptides expected to inhibit the binding of these two proteins were developed. Next 5 different peptides of 19 amino acid sequence that included in codons 73-160 of EF-1delta were synthesized (FIG. 24A). These peptides were covalently linked at NH2-terminalus to a membrane transducing 11 arginine-residues (11R).

[2] = test system: LC319 cells; experiment: MTT assay of LC319 cells treated with cell-permeable 11R-EF-1delta peptides; format: cell-based, human; conditions: peptide 2.5, 5.0 and 7.5 micro M for 5 days
From the text: 19-amino acid peptide sequence corresponding to a part of EF-1delta protein that contained possible binding sites of CDKN3 were covalently linked at its NH2-terminus to a membrane transducing 11 poly-arginine sequence (11R; refs. Futaki et al., Hayama et al., 2006, 2007). Five cell permeable peptides were synthesized: 11R-EF-1delta73-91, RRRRRRRRRRR-GGG-TSGDHGELVVRIASLEVEN; 11R-EF-1delta90-108, RRRRRRRRRRR-GGG-ENQSLRGVVQELQQAISKL; 11R-EF-1delta108-126, RRRRRRRRRRR-GGG-LEARLNVLEKSSPGHRATA; 11R-EF-1delta125-143, RRRRRRRRRRR-GGG-TAPQTQHVSPMRQVEPPAK; 11R-EF-1delta142-160, RRRRRRRRRRR-GGG-AKKPATPAEDDEDDDIDLF. Peptides were purified by preparative reverse-phase high-pressure liquid chromatography. LC319 cells were incubated with the 11R peptides at the concentration of 2.5, 5.0 and 7.5 micro M for 5 days. The medium was changed at every 48 hours at the appropriate concentrations of each peptide and the viability of cells was evaluated by MTT assay at 5 days after the treatment. 12. Immunoprecipitation and MALDI-TOF-MS mapping of CDKN3-Associated Proteins.

## RRRRRRRRRRR-GGG-ENQSLRGVVQELQQAISKL (RRRRRRRRRRRGGGENQSLRGVVQELQQAISKL) [11R-EF-1delta90-108]
[1]
  complex formation between endogenous CDKN3 and EF-1delta: reduced complex formation
[2]
  cell viability (MTT assay): significant decreases
